# Measurements taken from IntAct's records for PubMed 10357812.
# B1: Synaptojanin-2 (Rattus norvegicus (Rat)), O55207-3 (parent)
# chain: MALSKGLRLLARLDPTGPSSVLLEARGRGDCLLFEAGAVATLAPEEKEVIKGLYGKPTDAYGCLGELSLKSGGVPLSFLVLVTGCTSVGRIPDAEIYKITGTEFYPLQEEAKEEDRLPALKKILSSGVFYFAWPNDGACFDLTIRAQKQGDDCSEWGTSFFWNQLLHVPLRQHQVNCHDWLLKVICGVVTIRTVYASHKQAKACLISRISCERAGARFLTRGVNDDGHVSNFVETEQAIYMDDGVSSFVQIRGSVPLFWEQPGLQVGSHHLRLHRGLEANAPAFERHMVLLKEQYGQQVVVNLLGSRGGEEVLNRAFKKLLWASCHAGDTPMINFDFHQFAKGRKLEKLENLLRPQLKLHWDDFGVFAKGENVSPRFQKGTLRMNCLDCLDRTNTVQCFIALEVLHLQLESLGLNSKPITDRFVESFKAMWSLNGHGLSKVFTGSRALEGKAKVGKLKDGARSMSRTIQSNFFDGVKQEAIKLLLVGDVYNEESTDKGRMLLDNTALLGLGSNKQNSLSGMLDGKATPRILKAMTERQSEFTNFKRIQIAMGTWNVNGGKQFRSNLLGTTELTDWLLDAPQLSGAVDSQDDGGPADIFAVGFEEMVELSAGNIVNASTTNRKMWGEQLQKAISRSHRYILLTSAQLVGVCLYIFVRPYHVPFIRDVAIDTVKTGMGGKAGNKGAVGIRFQFHSTSFCFICSHLTAGQSQVKERNEDYREITHKLSFPSGRNIFSHDYVFWCGDFNYRIDLTYEEVFYFVKRQDWKKLMEFDQLQLQKSSGKIFKDFHEGTINFGPTYKYDVGSAAYDTSDKCRTPAWTDRVLWWRKKHPYDKTAGELNLLDSDLDGDANIRHTWSPGTLKYYGRAELQASDHRPVLAIVEVEVQEVDVGARERVFQEVSSVQGPLDATVIVNLQSPTLEERNEFPEDLRTELMQTLGNYGTIILVRINQGQMLVTFADSHSALSVLDVDGMKVKGRAVKIRPKTKDWLEGLREELIRKRDSMAPVSPTANSCLLEENFDFTSLDYESEGDVLEDDEDYLADEFGQPVVSDSELGGDDSSDTMSASTPASKSPALAKKKQHPTYKDDADLMTLKLELEVAGNFRHRSPSRSLSVPNRPRPPHPPQRPPPPTGLMVKKSASDASISSGTHGQYSILQTAKLLPGAPQQPPKARTGISKPYNVKQIKTTNAQEAEAAIRCLLEAGGGVPESAPGATPLRNQGSSKPEASLGPPVLPRRPVPRVPTMKKPTLRRTGKIVFCSSSQASQPCSLLQRHEFVRTVAAQRLTPVDASGSSV
# partner: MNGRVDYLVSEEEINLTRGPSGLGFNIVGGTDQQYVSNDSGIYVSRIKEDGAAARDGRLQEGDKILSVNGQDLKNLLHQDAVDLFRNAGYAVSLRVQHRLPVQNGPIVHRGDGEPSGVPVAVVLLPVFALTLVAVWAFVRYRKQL
# Variants of: B1
# Conditions: with syj2b_rat Synj2bp
row,Variant,effect of a mutation on the interaction
1,G1290A,disrupting interaction
2,V1293A,disrupting interaction
3,S1291A,disrupting interaction
